In patent US20240199740A1 (Ablynx, published 2024):

Tests used:
[1] = molecular target: T1, human CD123 expressed on cells (human, UniProt P26951 19-378); experiment: flow cytometry competition, CHO Flp-In human CD123 cells, competitor A0110056A10-Alexa647 (0.5 nM)
T1 construct: the cell line is named under assay; also called huCD123; IL-3Rα

[2] = molecular target: T1, human CD123 expressed on cells; experiment: flow cytometry competition, MOLM-13 cells, competitor APC-labelled antibody 7G3
[3] = molecular target: T1, human CD123 expressed on cells; experiment: flow cytometry, KG1a cells
[4] = molecular target: T1, human CD123 expressed on cells; experiment: flow cytometry, MOLM-13 cells
[5] = molecular target: T1, human CD123 expressed on cells; experiment: flow cytometry competition, CHO Flp-In huCD123 cells, competitor A0110056A10-Alexa647 (0.9 nM)
[6] = molecular target: T2, cynomolgus CD123 expressed on HEK Flp-In cells (cynomolgus); experiment: flow cytometry, Alexa647-labelled Nanobody, HEK Flp-In cyCD123 transfected cells
T2 construct: EHH61867.1; also called cyCD123; cyno CD123
T2 chain: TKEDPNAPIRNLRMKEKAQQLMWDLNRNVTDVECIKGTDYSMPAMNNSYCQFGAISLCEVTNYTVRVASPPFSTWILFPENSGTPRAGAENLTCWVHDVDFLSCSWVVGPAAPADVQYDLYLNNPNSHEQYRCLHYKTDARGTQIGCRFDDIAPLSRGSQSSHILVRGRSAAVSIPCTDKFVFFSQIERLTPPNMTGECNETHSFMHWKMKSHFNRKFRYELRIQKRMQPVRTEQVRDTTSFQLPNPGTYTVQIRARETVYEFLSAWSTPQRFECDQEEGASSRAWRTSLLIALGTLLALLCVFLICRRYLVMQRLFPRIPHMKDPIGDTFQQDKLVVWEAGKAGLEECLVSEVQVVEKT

[7] = molecular target: T3, recombinant human CD123 protein (R&D Systems, 301-R3/CF) (human, UniProt P26951 19-305); experiment: competition ELISA, coated antibody 7G3 as competitor, 4 nM biotinylated recombinant CD123
T3 construct: Bought recombinant His-tagged extracellular domain of human CD123; also called recombinant CD123; in house biotinylated-CD123 recombinant protein; not shown: His tag of the bought protein
T3 sequence: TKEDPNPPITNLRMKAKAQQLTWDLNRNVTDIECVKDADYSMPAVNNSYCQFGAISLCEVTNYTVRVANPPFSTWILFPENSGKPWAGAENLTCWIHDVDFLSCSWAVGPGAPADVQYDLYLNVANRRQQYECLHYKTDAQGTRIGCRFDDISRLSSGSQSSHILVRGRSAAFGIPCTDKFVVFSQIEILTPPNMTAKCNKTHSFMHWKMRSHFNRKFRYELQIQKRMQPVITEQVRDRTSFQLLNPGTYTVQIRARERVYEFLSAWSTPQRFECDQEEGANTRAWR

[8] = molecular target: T1, human CD123 expressed on cells; experiment: flow cytometry competition, MOLM-13 cells, competitor A0110056A10-Alexa647 (0.7 nM)
[9] = molecular target: T1, human CD123 expressed on cells; experiment: flow cytometry competition, CHO Flp-In human CD123 cells, competitor APC-labelled antibody 7G3
[10] = molecular target: T1, human CD123 expressed on cells; experiment: flow cytometry competition, MOLM-13 cells, competitor A0110056A10-Alexa647 (0.4 nM)
[11] = molecular target: T1, human CD123 expressed on cells; experiment: flow cytometry, Alexa647-labelled Nanobody, MOLM-13 cells
[12] = molecular target: T3, recombinant human CD123 protein (R&D …); experiment: SPR (ProteOn XPR36), CD123 immobilized
[13] = molecular target: T1, human CD123 expressed on cells; experiment: flow cytometry, Alexa647-labelled Nanobody, MOLM-13 cells; remark: listed apart in the source
[14] = molecular target: T2, cynomolgus CD123 expressed on HEK …; experiment: flow cytometry competition, HEK Flp-In cyCD123 cells, competitor A0110056A10-Alexa647 (0.9 nM)
[15] = molecular target: T1, human CD123 expressed on cells; experiment: flow cytometry, Alexa647-labelled Nanobody, CHO Flp-In human CD123 cells
[16] = molecular target: T2, cynomolgus CD123 expressed on HEK …; experiment: flow cytometry, Alexa647-labelled Nanobody, HEK Flp-In cynomolgus CD123 cells
[17] = molecular target: T1, human CD123 expressed on cells; experiment: flow cytometry, Alexa647-labelled Nanobody, CHO Flp-In huCD123 transfected cells
[18] = molecular target: T1, human CD123 expressed on cells; experiment: flow cytometry, Alexa647-labelled Nanobody, CHO Flp-In human CD123 cells; remark: listed apart in the source
[19] = molecular target: T1, human CD123 expressed on cells; experiment: flow cytometry, CHO Flp-In huCD123 transfected cells
[20] = molecular target: T2, cynomolgus CD123 expressed on HEK …; experiment: flow cytometry, HEK Flp-In cyCD123 transfected cells

B1: A0110056A10 (VHH)
VHH: EVQLVKSGGGLVQAGGSLRLSCAASGITSKINDMGWYRQTPGNYREWVASITATGTTNYRDSVKGRFTISRDNAKSTVYLQMNSLKPEDTTVYYCNTFPPISNFWGQGTLVTVSS
notes: Monovalent anti-CD123 Nanobody; also called A0110PMP056A10; A0110056A10-Alexa647; not shown: C-terminal triple Flag, His6 tag
Question: Which results are given for B1?
Answer: IC50 [1]: 6.7 nM; IC50 [2]: 1.1 nM; EC50 [3]: 0.5 nM; EC50 [4]: 0.63 nM; IC50 [5]: 1.9 nM; EC50 [6]: 2.48 nM; IC50 [7]: 3.1 nM; IC50 [8]: 1.4 nM; IC50 [9]: 6.5 nM; IC50 [10]: 1.1 nM; EC50 (read off the curve) [11]: ~0.7 nM; Kd [12]: 1.5 nM; koff [12]: 0.00079 s⁻¹; kon [12]: 530000 M⁻¹ s⁻¹; EC50 (read off the curve) [13]: ~0.5 nM; IC50 [14]: 7 nM; EC50 (read off the curve) [15]: ~1 nM; EC50 (read off the curve) [16]: ~3 nM; EC50 [17]: 0.974 nM; EC50 (read off the curve) [18]: ~3 nM

B2: A0110055F03 (VHH)
VHH: EVQLVESGGGLVQAGGPLRLSCAASGRTFSSYVMGWFRQAPGKEREFVAAIYWSNGKTQYTDSVKGRFTISGDNAKNTVYLQMNSLNPEDTAVYYCVADKDETGFRTLPIAYDYWGQGTQVTVSS
notes: Monovalent anti-CD123 Nanobody; also called A0110PMP055F03; A011005F03; not shown: C-terminal triple Flag, His6 tag
Question: How did the IC50 [2] turn out when B2 was run?
Answer: The IC50 was 480 nM.

Question: What about the EC50 [3] of the same binder?
Answer: The EC50 was > 100 nM.

Question: And the EC50 [4]?
Answer: Its EC50 is > 100 nM.

Question: And the IC50 [8]?
Answer: Its IC50 is > 100 nM.

Question: What about the EC50 [19] of the same binder?
Answer: Its EC50 is 5.94 nM.

Question: And the EC50 [20]?
Answer: Its EC50 is 2.53 nM.

Question: And the Kd [12]?
Answer: The Kd was 160 nM.

Question: And the koff [12]?
Answer: The koff was 0.0039 s⁻¹.

Question: What about the kon [12] of the same binder?
Answer: The kon was 25000 M⁻¹ s⁻¹.
